Results: IntAct's records for PubMed 17563362

B1: CAP-Gly domain-containing linker protein 1 (Homo sapiens), P30622-2 (parent)
chain: MSMLKPSGLKAPTKILKPGSTALKTPTAVVAPVEKTISSEKASSTPSSETQEEFVDDFRVGERVWVNGNKPGFIQFLGETQFAPGQWAGIVLDEPIGKNDGSVAGVRYFQCEPLKGIFTRPSKLTRKVQAEDEANGLQTTPASRATSPLCTSTASMVSSSPSTPSNIPQKPSQPAAKEPSATPPISNLTKTASESISNLSEAGSIKKGERELKIGDRVLVGGTKAGVVRFLGETDFAKGEWCGVELDEPLGKNDGAVAGTRYFQCQPKYGLFAPVHKVTKIGFPSTTPAKAKANAVRRVMATTSASLKRSPSASSLSSMSSVASSVSSRPSRTGLLTETSSRYARKISGTTALQEALKEKQQHIEQLLAERDLERAEVAKATSHVGEIEQELALARDGHDQHVLELEAKMDQLRTMVEAADREKVELLNQLEEEKRKVEDLQFRVEEESITKGDLEVATVSEKSRIMELEKDLALRVQEVAELRRRLESNKPAGDVDMSLSLLQEISSLQEKLEVTRTDHQREITSLKEHFGAREETHQKEIKALYTATEKLSKENESLKSKLEHANKENSDVIALWKSKLETAIASHQQAMEELKVSFSKGLGTETAEFAELKTQIEKMRLDYQHEIENLQNQQDSERAAHAKEMEALRAKLMKVIKEKENSLEAIRSKLDKAEDQHLVEMEDTLNKLQEAEIKVKELEVLQAKCNEQTKVIDNFTSQLKATEEKLLDLDALRKASSEGKSEMKKLRQQLEAAEKQIKHLEIEKNAESSKASSITRELQGRELKLTNLQENLSEVSQVKETLEKELQILKEKFAEASEEAVSVQRSMQETVNKLHQKEEQFNMLSSDLEKLRENLADMEAKFREKDEREEQLIKAKEKLENDIAEIMKMSGDNSSQLTKMNDELRLKERDVEELQLKLTKANENASFLQKSIEDMTVKAEQSQQEAAKKHEEEKKELERKLSDLEKKMETSHNQCQELKARYERATSETKTKHEEILQNLQKTLLDTEDKLKGAREENSGLLQELEELRKQADKAKAAQTAEDAMQIMEQMTKEKTETLASLEDTKQTNAKLQNELDTLKENNLKNVEELNKSKELLTVENQKMEEFRKEIETLKQAAAQKSQQLSALQEENVKLAEELGRSRDEVTSHQKLEEERSVLNNQLLEMKKRESKFIKDADEEKASLQKSISITSALLTEKDAELEKLRNEVTVLRGENASAKSLHSVVQTLESDKVKLELKVKNLELQLKENKRQLSSSSGNTDTQADEDERAQESQIDFLNSVIVDLQRKNQDLKMKVEMMSEAALNGNGDDLNNYDSDDQEKQSKKKPRLFCDICDCFDLHDTEDCPTQAQMSEDPPHSTHHGSRGEERPYCEICEMFGHWATNCNDDETF

Variants of: B1
Settings: with mare1_human MAPRE1, Q15691
Chain of mare1_human MAPRE1, Q15691 (Q15691 whole entry): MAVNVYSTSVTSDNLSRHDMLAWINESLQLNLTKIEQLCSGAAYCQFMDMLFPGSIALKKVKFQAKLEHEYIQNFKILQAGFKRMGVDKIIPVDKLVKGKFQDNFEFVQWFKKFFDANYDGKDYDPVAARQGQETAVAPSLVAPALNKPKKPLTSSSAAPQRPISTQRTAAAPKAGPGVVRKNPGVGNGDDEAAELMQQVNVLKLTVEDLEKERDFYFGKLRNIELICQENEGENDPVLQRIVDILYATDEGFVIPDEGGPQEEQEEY

Row | Variant | effect of a mutation on the interaction
1 | K224A | disrupting interaction strength
2 | K252A | disrupting interaction strength
3 | K277A | decreasing interaction strength

Variants of: B1
Settings: with tba1a_human TUBA1A

Row | Variant | effect of a mutation on the interaction
4 | N253A | decreasing interaction strength
5 | N253D | decreasing interaction strength
